According to patent US20210163534A1 (KYUNGPOOK NATIONAL UNIVERSITY INDUSTRY ACADEMIC COOPERATION …, published 2021):
No end group written: not given here.

B1: PD-L1Pep-1 (peptide)
peptide: CLQKTPKQC
modifications: cysteine pairing not given here; also: N-terminal FITC, biotin or Flamma-675 depending on assay
notes: also called PBP
B2: PD-L1Pep-2 (peptide)
peptide: CVRARTR
modifications: also: N-terminal FITC, biotin or Flamma-675 depending on assay
notes: Synthetic peptide CVRARTR from a T7 phage library; also called PBP

Target: T1, PD-L1 expressed on MDA-MB231 cells (human, UniProt Q9NZQ7 19-290)
T1 construct: whole, on cells; Endogenous protein of a human cell line; also called MDA-MB 231 cells expressing PD-L1
T1 sequence (Q9NZQ7 19-290): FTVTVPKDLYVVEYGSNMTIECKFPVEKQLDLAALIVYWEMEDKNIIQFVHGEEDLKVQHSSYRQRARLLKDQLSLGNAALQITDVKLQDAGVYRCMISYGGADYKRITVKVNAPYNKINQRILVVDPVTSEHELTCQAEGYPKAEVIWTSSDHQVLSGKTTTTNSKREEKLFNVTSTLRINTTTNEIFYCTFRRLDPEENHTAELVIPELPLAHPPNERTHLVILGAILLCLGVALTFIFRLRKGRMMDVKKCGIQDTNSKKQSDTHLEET
Experiment: flow cytometry on MDA-MB231 cells after siRNA knockdown of PD-L1

| Binder | binding result |
| --- | --- |
| B1 | binds |
| B2 | binds |
